# Experimental data from IntAct's records for PubMed 24658140.
# B1: Beta-arrestin-2 (Homo sapiens), P32121-4 (parent)
# chain: MGEKPGTRVFKKSSPNCKLTVYLGKRDFVDHLDKVDPVDGVVLVDPDYLKDRKVFVTLTCAFRYGREDLDVLGLSFRKDLFIATYQAFPPVPNPPRPPTRLQDRLLRKLGQHAHPFFFTVRMPLPSEGQGAGAGTVSGVGIPQNLPCSVTLQPGPEDTGKACGVDFEIRAFCAKSLEEKSHKRNSVRLVIRKVQFAPEKPGPQPSAETTRHFLMSDRSLHLEASLDKELYYHGEPLNVNVHVTNNSTKTVKKIKVSVRQYADICLFSTAQYKCPVAQLEQDDQVSPSSTFCKVYTITPLLSDNREKRGLALDGKLKHEDTNLASSTIVKEGANKEVLGILVSYRVKVKLVVSRGGDVSVELPFVLMHPKPHDHIPLPRPQSAAPETDVPVDTNLIEFDTNYATDDDIVFEDFARLRLKGMKDDDYDDQLC
# B2: Receptor tyrosine-protein kinase erbB-4 (Homo sapiens), Q15303 (parent)
# chain: MKPATGLWVWVSLLVAAGTVQPSDSQSVCAGTENKLSSLSDLEQQYRALRKYYENCEVVMGNLEITSIEHNRDLSFLRSVREVTGYVLVALNQFRYLPLENLRIIRGTKLYEDRYALAIFLNYRKDGNFGLQELGLKNLTEILNGGVYVDQNKFLCYADTIHWQDIVRNPWPSNLTLVSTNGSSGCGRCHKSCTGRCWGPTENHCQTLTRTVCAEQCDGRCYGPYVSDCCHRECAGGCSGPKDTDCFACMNFNDSGACVTQCPQTFVYNPTTFQLEHNFNAKYTYGAFCVKKCPHNFVVDSSSCVRACPSSKMEVEENGIKMCKPCTDICPKACDGIGTGSLMSAQTVDSSNIDKFINCTKINGNLIFLVTGIHGDPYNAIEAIDPEKLNVFRTVREITGFLNIQSWPPNMTDFSVFSNLVTIGGRVLYSGLSLLILKQQGITSLQFQSLKEISAGNIYITDNSNLCYYHTINWTTLFSTINQRIVIRDNRKAENCTAEGMVCNHLCSSDGCWGPGPDQCLSCRRFSRGRICIESCNLYDGEFREFENGSICVECDPQCEKMEDGLLTCHGPGPDNCTKCSHFKDGPNCVEKCPDGLQGANSFIFKYADPDRECHPCHPNCTQGCNGPTSHDCIYYPWTGHSTLPQHARTPLIAAGVIGGLFILVIVGLTFAVYVRRKSIKKKRALRRFLETELVEPLTPSGTAPNQAQLRILKETELKRVKVLGSGAFGTVYKGIWVPEGETVKIPVAIKILNETTGPKANVEFMDEALIMASMDHPHLVRLLGVCLSPTIQLVTQLMPHGCLLEYVHEHKDNIGSQLLLNWCVQIAKGMMYLEERRLVHRDLAARNVLVKSPNHVKITDFGLARLLEGDEKEYNADGGKMPIKWMALECIHYRKFTHQSDVWSYGVTIWELMTFGGKPYDGIPTREIPDLLEKGERLPQPPICTIDVYMVMVKCWMIDADSRPKFKELAAEFSRMARDPQRYLVIQGDDRMKLPSPNDSKFFQNLLDEEDLEDMMDAEEYLVPQAFNIPPPIYTSRARIDSNRSEIGHSPPPAYTPMSGNQFVYRDGGFAAEQGVSVPYRAPTSTIPEAPVAQGATAEIFDDSCCNGTLRKPVAPHVQEDSSTQRYSADPTVFAPERSPRGELDEEGYMTPMRDKPKQEYLNPVEENPFVSRRKNGDLQALDNPEYHNASNGPPKAEDEYVNEPLYLNTFANTLGKAEYLKNNILSMPEKAKKAFDNPDYWNHSLPPRSTLQHPDYLQEYSTKYFYKQNGRIRPIVAENPEYLSEFSLKPGTVLPPPPYRHRNTVV
# partner: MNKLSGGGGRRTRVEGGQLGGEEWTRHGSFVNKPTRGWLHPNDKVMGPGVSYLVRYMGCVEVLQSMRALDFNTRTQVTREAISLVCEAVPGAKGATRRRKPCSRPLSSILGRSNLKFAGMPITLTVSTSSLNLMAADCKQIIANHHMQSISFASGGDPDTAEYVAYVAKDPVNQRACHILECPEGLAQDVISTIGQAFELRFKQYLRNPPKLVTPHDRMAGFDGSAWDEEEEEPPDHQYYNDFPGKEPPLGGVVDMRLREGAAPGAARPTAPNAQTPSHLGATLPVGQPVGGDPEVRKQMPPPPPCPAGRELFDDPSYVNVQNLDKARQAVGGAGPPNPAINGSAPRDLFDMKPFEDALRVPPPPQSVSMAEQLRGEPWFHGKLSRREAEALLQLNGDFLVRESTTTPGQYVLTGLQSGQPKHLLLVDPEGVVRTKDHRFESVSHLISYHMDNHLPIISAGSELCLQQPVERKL
# Variants of: B1
# Details: with adrb2_human ADRB2, P07550
row,effect of a mutation on the interaction,Variant
1,decreasing interaction strength,MGEKPGTRVFKKSSPNCKLTVYLGKRDFVDHLDKVDPVDGVVLVDPDYLKDRKVFVTLTCAFRYGREDLDVLGLSFRKDLFIATYQAFPPVPNPPRPPTRLQDRLLRKLGQHAHPFFFTVRMPLPSEGQGAGAGTVSGVGIPQNLPCSVTLQPGPEDTGKACGVDFEIEAFCAKSLEEKSHKRNSVRLVIRKVQFAPEKPGPQPSAETTRHFLMSDRSLHLEASLDKELYYHGEPLNVNVHVTNNSTKTVKKIKVSVRQYADICLFSTAQYKCPVAQLEQDDQVSPSSTFCKVYTITPLLSDNREKRGLALDGKLKHEDTNLASSTIVKEGANKEVLGILVSYRVKVKLVVSRGGDVSVELPFVLMHPKPHDHIPLPRPQSAAPETDVPVDTNLIEFDTNYATDDDIVFEDFARLRLKGMKDDDYDDQLC [R169E]

# Variants of: B2
# Details: with SHC1, P29353-7
row,effect of a mutation on the interaction,Variant
1,increasing interaction strength,E872K
2,increasing interaction strength,E542K
